# How the values were obtained:
# DARPP-21 phosphorylation = settings: treatment of mice; cited from earlier work
# calmodulin [1] = target: T1, calmodulin (Rattus norvegicus, UniProt P0DP29); assay: Yeast two-hybrid protein-protein binding assay; settings: yeast strain EGY48; FIG. 2
# T1 construct: host or cells: yeast strain EGY48
# Method: Protein-protein binding assays were performed in a yeast two-hybrid system using the DupLexA system (Origene Technologies, Rockville, Md.) in yeast strain EGY48. To generate a fusion protein of LexA and DARPP-21, DARPP-21 cDNA was subcloned into EcoRI-XhoI sites of pEG202 bait vector. Prey vector contained oligo-dT primed rat brain library (Origene Technologies, Rockville, Md.) attached to the B42 acid blob domain and governed by a gal-1 promoter.
# Yeast were sequentially transformed with the bait, pSH18-34 lacZ-harboring prey cDNA library-containing plasmids using the lithium acetate protocol. Efficiency of transformation was estimated to be 10^6 with a library complexity of 4×10^6 individual clones. Positive clones appeared 3 to 7 days after transformation. Bait-prey interaction was assessed by intensity of growth on a (gal)(-his, -trp, -ura, -leu) medium. Specificity of the interaction was verified by X-gal staining and mating assay (Origene Technologies, Rockville, Md.).
# To confirm calmodulin-DARPP-21 interactions and compare calmodulin binding to DARPP-21 mutants, EGY48 yeast cells were transformed with the bait, prey and lacZ reporter plasmids and plated onto (glu)(-his, -trp, -ura) plates. Four days later, selected colonies were transferred into a liquid (+raf)(-his, -trp, -ura) medium and grown overnight at 30 C with vigorous shaking. […]
# CaMKI = assay: In vitro inhibition of CaMKI kinase activity; assay type: biochemical
# Method: (§1) For preparations of phosphorylated DARPP-21, the protein was phosphorylated in vitro using [γ-^32P]ATP with the catalytic subunit of PKA as described (Caporaso et al. 2000. Neuropharmacology 39:1636-1643). The stoichiometry of phosphorylation was determined to be 95% for DARPP-21.
# (§2) DARPP-21 was phosphorylated as described in Section 6.1. In vitro inhibition studies on the kinase and phosphatase activities of CaMKI and calcineurin, respectively, were performed according to standard techniques in the art.
# calcineurin = assay: In vitro inhibition of calcineurin phosphatase activity; assay type: biochemical
# Method: as §1, §2
# calmodulin [2] = target: T2, calmodulin (Bos taurus, UniProt P62157); assay: Affinity chromatography using calmodulin-Sepharose; assay type: binding; settings: 0.5 mM CaCl2 buffer versus 1 mM EGTA buffer; FIG. 5
# T2 construct: purchased Amersham Pharmacia Biotech
# Method: DARPP-21 (0.5 ml of 0.1 mg/ml) was applied to 0.5 ml of 1 mg/ml calmodulin-Sepharose (Amersham Pharmacia Biotech, Piscataway, N.J.) in buffer B (100 mM NaCl, 20 mM Tris pH 7.5, 1 mM MgCl2, 0.5 mM CaCl2, 1 mM DTT) or buffer C containing 1 mM EGTA instead of 0.5 mM CaCl2. Beads were washed with several volumes of buffer D containing 300 mM NaCl and 20 mM Tris pH 7.5 and bound proteins were eluted with 10 mM EGTA/20 mM Tris pH 7.5.
# [3] = same concentration as phosphorylated DARPP-21
molecule,measurement,setting,value
CN[C@@H](C)Cc1ccccc1 [methamphetamine],DARPP-21 phosphorylation in vivo,DARPP-21 phosphorylation,increased
"Ser^55 to alanine in DARPP-21: DARPP-21 mutant with Ala substitution for Ser^55, LexA fusion in yeast (protein, UniProt Q9UBL0 2-812, looked up, variant S55A, LexA fusion, DARPP-21 mutant with Ala substitution for Ser^55, LexA fusion in yeast) cAMP-regulated phosphoprotein …: SEQGDLNQAIAEEGGTEQETATPENGIVKSESLDEEEKLELQRRLEAQNQERRKAKSGAGKGKLTRSLAVCEESSARPGGESLQDQESIHLQLSSFSSLQEEDKSRKDDSEREKEKDKNKDKTSEKPKIRMLSKDCSQEYTDSTGIDLHEFLINTLKNNSRDRMILLKMEQEIIDFIADNNNHYKKFPQMSSYQRMLVHRVAAYFGLDHNVDQTGKSVIINKTSSTRIPEQRFCEHLKDEKGEESQKRFILKRDNSSIDKEDNQQNRMHPFRDDRRSKSIEEREEEYQRVRERIFAHDSVCSQESLFVENSRLLEDSNICNETYKKRQLFRGNRDGSGRTSGSRQSSSENELKWSDHQRAWSSTDSDSSNRNLKPAMTKTASFGGITVLTRGDSTSSTRSTGKLSKAGSESSSSAGSSGSLSRTHPPLQSTPLVSGVAAGSPGCVPYPENGIGGQVAPSSTSYILLPLEAATGIPPGSILLNPHTGQPFVNPDGTPAIYNPPTSQQPLRSAMVGQSQQQPPQQQPSPQPQQQVQPPQPQMAGPLVTQRDDVATQFGQMTLSRQSSGETPEPPSGPVYPSSLMPQPAQQPSYVIASTGQQLPTGGFSGSGPPISQQVLQPPPSPQGFVQQPPPAQMPVYYYPSGQYPTSTTQQYRPMAPVQYNAQRSQQMPQAAQQAGYQPVLSGQQGFQGLIGVQQPPQSQNVINNQQGTPVQSVMVSYPTMSSYQVPMTQGSQGLPQQSYQQPIMLPNQAGQGSLPATGMPVYCNVTPPTPQNNLRLIGPHCPSSTVPVMSASCRTNCASMSNAGWQVKF",interaction with calmodulin in yeast,calmodulin [1],completely inhibited the interaction with calmodulin
"Phosphorylated DARPP-21: DARPP-21 phosphorylated in vitro with the catalytic subunit of PKA (protein, UniProt Q9UBL0 2-812, looked up, phospho-Ser55, DARPP-21 phosphorylated in vitro with the catalytic subunit of PKA) cAMP-regulated phosphoprotein …: SEQGDLNQAIAEEGGTEQETATPENGIVKSESLDEEEKLELQRRLEAQNQERRKSKSGAGKGKLTRSLAVCEESSARPGGESLQDQESIHLQLSSFSSLQEEDKSRKDDSEREKEKDKNKDKTSEKPKIRMLSKDCSQEYTDSTGIDLHEFLINTLKNNSRDRMILLKMEQEIIDFIADNNNHYKKFPQMSSYQRMLVHRVAAYFGLDHNVDQTGKSVIINKTSSTRIPEQRFCEHLKDEKGEESQKRFILKRDNSSIDKEDNQQNRMHPFRDDRRSKSIEEREEEYQRVRERIFAHDSVCSQESLFVENSRLLEDSNICNETYKKRQLFRGNRDGSGRTSGSRQSSSENELKWSDHQRAWSSTDSDSSNRNLKPAMTKTASFGGITVLTRGDSTSSTRSTGKLSKAGSESSSSAGSSGSLSRTHPPLQSTPLVSGVAAGSPGCVPYPENGIGGQVAPSSTSYILLPLEAATGIPPGSILLNPHTGQPFVNPDGTPAIYNPPTSQQPLRSAMVGQSQQQPPQQQPSPQPQQQVQPPQPQMAGPLVTQRDDVATQFGQMTLSRQSSGETPEPPSGPVYPSSLMPQPAQQPSYVIASTGQQLPTGGFSGSGPPISQQVLQPPPSPQGFVQQPPPAQMPVYYYPSGQYPTSTTQQYRPMAPVQYNAQRSQQMPQAAQQAGYQPVLSGQQGFQGLIGVQQPPQSQNVINNQQGTPVQSVMVSYPTMSSYQVPMTQGSQGLPQQSYQQPIMLPNQAGQGSLPATGMPVYCNVTPPTPQNNLRLIGPHCPSSTVPVMSASCRTNCASMSNAGWQVKF",IC50,"CaMKI; in vitro, FIG. 6",1200 nM
same,IC50,"calcineurin; in vitro, FIG. 7",1000 nM
"unphosphorylated DARPP-21: neuronal 21 kDa dopamine- and cAMP-regulated phosphoprotein, not phosphorylated (protein, UniProt Q9UBL0 2-812, looked up) cAMP-regulated phosphoprotein …: SEQGDLNQAIAEEGGTEQETATPENGIVKSESLDEEEKLELQRRLEAQNQERRKSKSGAGKGKLTRSLAVCEESSARPGGESLQDQESIHLQLSSFSSLQEEDKSRKDDSEREKEKDKNKDKTSEKPKIRMLSKDCSQEYTDSTGIDLHEFLINTLKNNSRDRMILLKMEQEIIDFIADNNNHYKKFPQMSSYQRMLVHRVAAYFGLDHNVDQTGKSVIINKTSSTRIPEQRFCEHLKDEKGEESQKRFILKRDNSSIDKEDNQQNRMHPFRDDRRSKSIEEREEEYQRVRERIFAHDSVCSQESLFVENSRLLEDSNICNETYKKRQLFRGNRDGSGRTSGSRQSSSENELKWSDHQRAWSSTDSDSSNRNLKPAMTKTASFGGITVLTRGDSTSSTRSTGKLSKAGSESSSSAGSSGSLSRTHPPLQSTPLVSGVAAGSPGCVPYPENGIGGQVAPSSTSYILLPLEAATGIPPGSILLNPHTGQPFVNPDGTPAIYNPPTSQQPLRSAMVGQSQQQPPQQQPSPQPQQQVQPPQPQMAGPLVTQRDDVATQFGQMTLSRQSSGETPEPPSGPVYPSSLMPQPAQQPSYVIASTGQQLPTGGFSGSGPPISQQVLQPPPSPQGFVQQPPPAQMPVYYYPSGQYPTSTTQQYRPMAPVQYNAQRSQQMPQAAQQAGYQPVLSGQQGFQGLIGVQQPPQSQNVINNQQGTPVQSVMVSYPTMSSYQVPMTQGSQGLPQQSYQQPIMLPNQAGQGSLPATGMPVYCNVTPPTPQNNLRLIGPHCPSSTVPVMSASCRTNCASMSNAGWQVKF",effect on CaMKI activity,CaMKI; [3],no effect
same,effect on calcineurin activity,calcineurin; [3],no effect
"DARPP-21: neuronal 21 kDa dopamine- and cAMP-regulated phosphoprotein (protein, UniProt Q9UBL0 2-812, looked up) cAMP-regulated phosphoprotein …: SEQGDLNQAIAEEGGTEQETATPENGIVKSESLDEEEKLELQRRLEAQNQERRKSKSGAGKGKLTRSLAVCEESSARPGGESLQDQESIHLQLSSFSSLQEEDKSRKDDSEREKEKDKNKDKTSEKPKIRMLSKDCSQEYTDSTGIDLHEFLINTLKNNSRDRMILLKMEQEIIDFIADNNNHYKKFPQMSSYQRMLVHRVAAYFGLDHNVDQTGKSVIINKTSSTRIPEQRFCEHLKDEKGEESQKRFILKRDNSSIDKEDNQQNRMHPFRDDRRSKSIEEREEEYQRVRERIFAHDSVCSQESLFVENSRLLEDSNICNETYKKRQLFRGNRDGSGRTSGSRQSSSENELKWSDHQRAWSSTDSDSSNRNLKPAMTKTASFGGITVLTRGDSTSSTRSTGKLSKAGSESSSSAGSSGSLSRTHPPLQSTPLVSGVAAGSPGCVPYPENGIGGQVAPSSTSYILLPLEAATGIPPGSILLNPHTGQPFVNPDGTPAIYNPPTSQQPLRSAMVGQSQQQPPQQQPSPQPQQQVQPPQPQMAGPLVTQRDDVATQFGQMTLSRQSSGETPEPPSGPVYPSSLMPQPAQQPSYVIASTGQQLPTGGFSGSGPPISQQVLQPPPSPQGFVQQPPPAQMPVYYYPSGQYPTSTTQQYRPMAPVQYNAQRSQQMPQAAQQAGYQPVLSGQQGFQGLIGVQQPPQSQNVINNQQGTPVQSVMVSYPTMSSYQVPMTQGSQGLPQQSYQQPIMLPNQAGQGSLPATGMPVYCNVTPPTPQNNLRLIGPHCPSSTVPVMSASCRTNCASMSNAGWQVKF",binding to calmodulin-Sepharose,calmodulin [2],detected only in the calcium-equilibrated column
